The series concerns the target Ded1-His6 (Saccharomyces cerevisiae? (paper says …, UniProt P06634 1-604)). The experiment in a line: competition (magnetic tweezers displacement assay); 1 mM ATP; 10 nM Ded1; against 200 nM 5'ss-11 bp RNA; effective competitor; Magnetic tweezers, Fhold 7 pN, 10 nM Ded1, 1 mM ATP, 200 nM 5'ss-11 bp RNA; buffer, salt, pH and temperature not in the material. Table 1 and Figures 4-6 (duplex displacement/unwinding kinetics) left out as enzyme activity without a direct binding read-out. Conditions: protein: recombinant; tags: His6 (pET22b); single strand.

Sequence of Ded1-His6 (Saccharomyces cerevisiae? (P06634 whole entry): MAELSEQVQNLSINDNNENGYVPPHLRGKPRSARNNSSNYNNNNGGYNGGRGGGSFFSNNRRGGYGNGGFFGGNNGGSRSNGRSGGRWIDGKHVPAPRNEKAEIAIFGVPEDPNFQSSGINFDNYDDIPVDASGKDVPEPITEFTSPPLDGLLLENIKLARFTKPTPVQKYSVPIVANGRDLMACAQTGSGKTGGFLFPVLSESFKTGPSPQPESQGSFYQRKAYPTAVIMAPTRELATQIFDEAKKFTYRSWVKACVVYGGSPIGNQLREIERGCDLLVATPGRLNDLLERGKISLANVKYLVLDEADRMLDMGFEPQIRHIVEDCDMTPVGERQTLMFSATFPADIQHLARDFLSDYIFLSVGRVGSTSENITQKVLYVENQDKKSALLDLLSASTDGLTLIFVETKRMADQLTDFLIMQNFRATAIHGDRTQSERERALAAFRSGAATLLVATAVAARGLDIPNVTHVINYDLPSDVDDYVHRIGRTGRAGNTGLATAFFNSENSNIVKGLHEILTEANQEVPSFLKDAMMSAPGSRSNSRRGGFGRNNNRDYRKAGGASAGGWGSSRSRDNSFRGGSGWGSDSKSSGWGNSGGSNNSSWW

For UCAUACUUUUCUUUUCUUUUCCAUC (ssRNA) [ssRNA01 (RNA01)], the binding result is given as “binds”.

Source of the values: paper PMC6468243, “Mechanistic characterization of the DEAD-box RNA helicase Ded1 from yeast as revealed by a novel technique using single-molecule magnetic tweezers”.
